From patent US20160216264A1 (WASHINGTON UNIVERSITY, published 2016) come the findings set out here.

For test [1], the target named is T1, rat myo-inositol oxygenase (Miox) (rat, UniProt Q9QXN4 1-285).
T1 construct: also called rat Miox; rat MIOX
T1 sequence (looked up): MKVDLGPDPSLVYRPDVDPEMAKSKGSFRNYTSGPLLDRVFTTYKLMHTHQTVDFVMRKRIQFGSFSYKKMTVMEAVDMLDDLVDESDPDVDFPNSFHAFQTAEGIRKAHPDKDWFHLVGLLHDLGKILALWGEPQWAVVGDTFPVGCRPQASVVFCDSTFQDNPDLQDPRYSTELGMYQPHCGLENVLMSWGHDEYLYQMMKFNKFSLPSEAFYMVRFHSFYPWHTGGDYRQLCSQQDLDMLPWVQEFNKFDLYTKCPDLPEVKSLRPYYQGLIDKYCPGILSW
Briefly: Western blot of rat kidney homogenate. How it is done:
(§1) The cross-species immunoreactivity of the anti-MIOX monoclonal antibodies was investigated (FIG. 3D,E). Human, mouse, and rat kidney homogenates were separately probed with both monoclonal anti-MIOX antibodies.
(§2) Normal human kidney homogenate was purchased from G-Biosciences (NLH-04, G-Biosciences). Mouse and rat kidney homogenate was purchased from G-Biosciences, St. Louis, Mo. Western blotting was performed as previously described (Laterza O F, et al. Clin Chem 2006; 52:1713-1721). Blots were probed with 0.004 mg/mL of the rabbit polyclonal anti-MIOX antibody R9544 or 0.004 mg/mL of either the 01D10 or 12H06 mouse anti-MIOX monoclonal antibody. Where indicated, both monoclonal antibodies were used simultaneously, each at the above concentrations.
In general terms: Immunoblotting shows a protein as a band on a membrane.

The target in test [2] is T2, peptide 1 (synthetic peptide corresponding to the epitope for mAb 01D10) (human).
T2 peptide: PSLVYRPDVDPEV
Nature of the test: peptide preincubation, then immunoblot. Here is the method: (§3) FIG. 4A and FIG. 4B depict images of immunoblots showing confirmation of specific antibody epitopes by blocking mAb binding to endogenous MIOX. (FIG. 4A) The peptides corresponding to the epitopes for mAb 01D10 (peptide 1) and mAb 12H06 (peptide 2) were synthesized. mAb 01D10 was pre-incubated for one hour with buffer alone, 100 μg/ml peptide 1, or 100 μg/ml peptide 2. (FIG. 4B) Western inhibition of mAb 12H06 using either peptide 1 or peptide 2.
(§4) The linear epitopes of the anti-MIOX antibodies were determined by use of spot-peptide membrane arrays containing the full length amino acid sequence of MIOX. The two mouse monoclonal antibodies mapped to opposite ends of the MIOX sequence (FIG. 3B). The antibody designated 01D10 mapped to the N-terminal sequence of MIOX (FIG. 3C). The peptide spots were decoded to reveal the sequence P9-V21. The mouse monoclonal antibody designated 12H06 mapped to the C-terminal region of MIOX (FIG. 3C). The peptide spots were decoded to reveal the epitope sequence R268-C279. […] The peptide epitope recognized by the 12H06 mouse monoclonal antibody was 100% identical to the corresponding mouse and rat Miox peptide sequence. The peptide epitope recognized by the 01D10 mouse monoclonal antibody was 92% identical to the corresponding mouse and rat Miox peptide sequence. […]

Test [3] concerns the target T3, mouse myo-inositol oxygenase (Miox) (mouse, UniProt Q9QXN5 1-285).
T3 construct: also called mouse Miox; mouse MIOX
T3 sequence (looked up): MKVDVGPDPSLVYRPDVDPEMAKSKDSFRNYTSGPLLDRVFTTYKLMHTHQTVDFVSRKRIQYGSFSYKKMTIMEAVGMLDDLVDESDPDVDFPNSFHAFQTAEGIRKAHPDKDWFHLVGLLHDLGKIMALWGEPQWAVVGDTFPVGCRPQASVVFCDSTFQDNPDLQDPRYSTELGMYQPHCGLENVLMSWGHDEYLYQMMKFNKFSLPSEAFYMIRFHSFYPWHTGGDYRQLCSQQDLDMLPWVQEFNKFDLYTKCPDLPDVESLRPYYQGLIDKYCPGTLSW
Nature of the test: Western blot of mouse kidney homogenate. Here is the method: as §1, §2

The target of test [4] is T4, peptide 2 (synthetic peptide corresponding to the epitope for mAb 12H06) (human).
T4 peptide: RPYYQGLIDKYC
Briefly: peptide preincubation (one hour), then immunoblot. Here is the method: as §3, §4

B1: mouse monoclonal anti-MIOX antibody 12H06 (antibody, IgG2b, V domains shown)
VH: QVQLQQPGAELVRPGTSVKLSCKASGYTFTSYWMHWVKQRPGQGLEWIGLIDPSDSYTNYNQKFKGKATLTVDTSSSTASMQLSSLTSEDSAVYYCVRTYYHSSYFFAYWGQGTLVTVSS
VL: DIVVTQSPASFAVSLGQRATISCRASKSVSTSGYSYINWYQQKPGQPPKLLIYLASNLESGVPARFSGSGSGTDFTLNIHPVEEEDAATYYCQHSRELPLTFGAGTRLELK
notes: the VH entry runs a few residues into CH1; also called mAb 12H06
B1: the binding result in test [1] is listed as “binds”; in test [2], “no binding (tested: 100 µg/ml)”; in test [3], “binds”.

B2: mouse monoclonal anti-MIOX antibody 01D10 (antibody, IgG2b, V domains shown)
VH: QVQLQQSGPELVKPGASVKISCKASGYSFTSYYIHWVKQRPGQGLEWIGWIYPGSGNSKYNEKFKGKATLTADTSSSTAYMQLSSLTSEDSAVYYCARDGSTYNWNFDVWGTGTTVTVSS
VL: DIQMTQSPASLSASVGETVTITCRTSGNIHNYLAWYQQKQGKSPQLLVYNAKTLADGVPSRFSGSGSGTQYSLKINSLQPEDFGSYYCQHFWSIPFTFGSGTKLEIKR
notes: they run a few residues into the constant regions; Biotinylated when used as capping antibody in the sandwich immunoassay; also called mAb 01D10
Turning to B2, the binding result in test [4] is reported as “no binding (tested: 100 µg/ml)”.
